Literature values in patent publication US20240307501A1 (priority 2021, published 2024).

Conditions: chronic doses of glucagon, patients with CHI, across 2 studies

For “Glucagon: native glucagon used off-label by IV or continuous SC infusion for CHI”, the “patients with erythema necrolyticum” value is given as 4 out of 11.
